# According to publication doi:10.1101/327866 (bioRxiv, 2018):
# Changes are numbered by the printed parent chain.
# B1: PA13P1H08 variant: heavy chain reverted to the inferred naive rearrangement, native light chain (antibody, V domains shown)
# VH: QVQLVESGGGVVQPGRSLRLSCAASGFTFSSYGMHWVRQAPGKGLEWVAVISYDGSNKYYADSVKGRFTISRDNSKNTLYLQMNSLRAEDTAVYYCAKVLDYSNYYYYYGMDVWGQGTTVTVSS
# VL: EIVLTQSPGTLSLSPGGRGTLSCRTSQTINNAHLAWYQHKPGQAPRLLIYGSSERATGVPDRFSGSGSGSDFTLTISSLEAEDFAVYYCQHYGRSPPYTFGPGTKLDIK
# B2: PA13P1H08 variant: only the heavy chain CDR1 reverted to the inferred naive rearrangement, native light chain (antibody, V domains shown)
# VH: QVQLVNSGGGVVQPGRSLRLSCVASGFTFSSYGIHWVRQAPGKGLEWVAVISNDGEKSESADSVKGRFTPSRDNSKNTVYLQMNNLRVEDTAVYYCAKVLDYSRYSYYYGMDVWGQGTTVIVSS
# VL: B1 VL
# B3: PA13P1H08 variant: only the heavy chain framework regions reverted to the inferred naive rearrangement, native light chain (antibody, V domains shown)
# VH: B1 VH with S31T, Y32F, Y53N, S56E, N57K, K58S, N104R, Y106S
# VL: B1 VL
# B4: PA13P1H08 variant: only the heavy chain CDR3 reverted to the inferred naive rearrangement, native light chain (antibody, V domains shown)
# VH: B2 VH with S31T, Y32F, R104N, S106Y
# VL: B1 VL
# B5: PA13P1H08 variant: only the heavy chain CDR2 reverted to the inferred naive rearrangement, native light chain (antibody, V domains shown)
# VH: B2 VH with S31T, Y32F, N53Y, E56S, K57N, S58K
# VL: B1 VL
# Target: Ara h 2, purified natural peanut allergen (Arachis hypogaea (peanut), cultivar not …, UniProt Q6PSU2)
# Test: BLI
row,binding result,Binder
1,binds,B1
2,binds,B2
3,binds,B3
4,binds,B4
5,binds,B5

# Target: Ara h 3, purified natural peanut allergen (Arachis hypogaea (peanut), cultivar not …, UniProt O82580)
# Test: BLI
row,binding result,Binder
1,binds,B1
2,binds,B2
3,binds,B3
4,binds,B4
5,binds,B5
